Source: article PMC2132594

Molecular target: human erythrocyte spectrin (heterodimer of α and β chains) (human) (UniProt P02549)
Test: single-particle fluorescence imaging
Settings: remark: other sources report otherwise

percent of spots in the second peak (tetramers): 40% | percent of the total spectrin in the second peak (tetramers): 59%
Substance: human erythrocyte spectrin (heterodimer of α and β chains), P02549 1-2419; P11277 1-2137
